A short description of one data set: circular dichroism. As to conditions: 10 mM Na phosphate; pH 7.4; 25 °C; 100 uM.
The next data set can be described thus: in vitro. As to conditions: rat, plasma.
The conditions of data set [1]: 37 °C, comparison in words.

Bridge positions count the residues as written; N and C are the ends. Square brackets hold non-standard residues; d marks the D form. Peptide text beside a SMILES is read from it. S5 = C=CCCC[C@](C)(N)C(=O)O

In “circular dichroism”, `CC(=O)N[C@@H](Cc1c[nH]cn1)C(=O)N[C@@H](CCC(=O)O)C(=O)N[C@H]1Cn2cc(nn2)CCc2cn(nn2)C[C@@H](C(=O)N[C@@H](Cc2ccc(O)cc2)C(=O)N[C@@H](CCC(N)=O)C(N)=O)NC(=O)[C@H](CC(C)C)NC(=O)[C@H](CC(=O)O)NC(=O)[C@H](CCC(=O)O)NC1=O` registered a helicity of 50.7%.

On to `CC(=O)N[C@@H](Cc1c[nH]cn1)C(=O)N[C@@H](CCC(=O)O)C(=O)N[C@H]1CC(=O)NCCCC[C@@H](C(=O)N[C@@H](Cc2ccc(O)cc2)C(=O)N[C@@H](CCC(N)=O)C(N)=O)NC(=O)[C@H](CC(C)C)NC(=O)[C@H](CC(=O)O)NC(=O)[C@H](CCC(=O)O)NC1=O` (Ac-HEDEDLKYQ-NH2; lactam 3-7), for which the helicity in the data set “circular dichroism” came to 35.1%.

A word on the half-life: it is how long it takes for the measured level to halve. A low value points to fast loss. In “circular dichroism”, `CC(=O)N[C@@H](CC(=O)O)C(=O)N[C@@H](CCCCN)C(=O)N[C@H]1CCCCNC(=O)C[C@@H](C(=O)N[C@@H](CCC(=O)O)C(=O)N[C@@H](CC(=O)O)C(N)=O)NC(=O)[C@H](CCC(=O)O)NC(=O)[C@H](Cc2c[nH]cn2)NC(=O)[C@H](CC(N)=O)NC1=O` [compound 3] (Ac-DKKNHEDED-NH2; lactam 3-7) gave a helicity of 49.9%. In “in vitro”, this molecule gave a half-life of 2.9 h.

As to `CC(=O)N[C@@H](Cc1c[nH]cn1)C(=O)N[C@@H](CCC(=O)O)C(=O)N[C@H]1CCCCNC(=O)CC[C@@H](C(=O)N[C@@H](Cc2ccc(O)cc2)C(=O)N[C@@H](CCC(N)=O)C(N)=O)NC(=O)[C@H](CC(C)C)NC(=O)[C@H](CC(=O)O)NC(=O)[C@H](CCC(=O)O)NC1=O` (Ac-HEKEDLEYQ-NH2; lactam 3-7), the helicity in “circular dichroism” was 4.6%.

`CC(=O)N[C@@H](CC(=O)O)C(=O)N[C@@H](CCCCN)C(=O)N[C@H]1CSCc2ccc(cc2)CSC[C@@H](C(=O)N[C@@H](CCC(=O)O)C(=O)N[C@@H](CC(=O)O)C(N)=O)NC(=O)[C@H](CCC(=O)O)NC(=O)[C@H](Cc2c[nH]cn2)NC(=O)[C@H](CC(N)=O)NC1=O` came in with a helicity in the data set “circular dichroism” of 5%.

As for `CC(=O)N1CCC[C@H]1C(=O)N[C@@H](CC(=O)O)C(=O)N[C@@H](CCCCN)C(=O)N[C@H]1CCCCNC(=O)C[C@@H](C(=O)N[C@@H](CCC(=O)O)C(=O)N[C@@H](CC(=O)O)C(N)=O)NC(=O)[C@H](CCC(=O)O)NC(=O)[C@H](Cc2c[nH]cn2)NC(=O)[C@H](CC(N)=O)NC1=O` (Ac-PDKKNHEDED-NH2; lactam 4-8), the helicity in “circular dichroism” came to 89.7%.

Regarding Ac-DKFNHEAED-NH2 [peptide 1], the “Degradation / stability in rat plasma over 24 h” value in data set [1] is on record as “levels of degradation similar to those of 8-amino acid-long AngII”.

Molecule `CC(=O)N[C@@H](Cc1c[nH]cn1)C(=O)N[C@@H](CCC(=O)O)C(=O)N[C@@H]1Cc2cn(nn2)CCCC[C@@H](C(=O)N[C@@H](Cc2ccc(O)cc2)C(=O)N[C@@H](CCC(N)=O)C(N)=O)NC(=O)[C@H](CC(C)C)NC(=O)[C@H](CC(=O)O)NC(=O)[C@H](CCC(=O)O)NC1=O` displayed a helicity in the data set “circular dichroism” of 25.7%.

On to `CC(=O)N[C@@H](CC(=O)O)C(=O)N[C@@H](CCCCN)C(=O)N[C@@]1(C)CCC/C=C/CCC[C@@](C)(C(=O)N[C@@H](CCC(=O)O)C(=O)N[C@@H](CC(=O)O)C(N)=O)NC(=O)[C@H](CCC(=O)O)NC(=O)[C@H](Cc2c[nH]cn2)NC(=O)[C@H](CC(N)=O)NC1=O` (Ac-DK[S5]NHE[S5]ED-NH2; staple (E) 3-7), for which the helicity in “circular dichroism” was found to be 4.7%.

`CC(=O)N[C@@H](CC(=O)O)C(=O)N[C@@H](CCCCN)C(=O)N[C@H]1CCCCNC(=O)C[C@@H](C(=O)N[C@@H](CCC(=O)O)C(=O)N[C@@H](CC(=O)O)C(=O)N[C@H]2CCCCNC(=O)C[C@@H](C(N)=O)NC(=O)[C@H](CCC(N)=O)NC(=O)[C@H](Cc3ccc(O)cc3)NC(=O)[C@H](Cc3ccccc3)NC2=O)NC(=O)[C@H](CCC(=O)O)NC(=O)[C@H](Cc2c[nH]cn2)NC(=O)[C@H](CC(N)=O)NC1=O` (Ac-DKKNHEDEDKFYQD-NH2; lactam 3-7, 10-14) returned a helicity in the data set “circular dichroism” of 25.2%.

As for `CC(=O)N[C@@H](Cc1c[nH]cn1)C(=O)N[C@@H](CCC(=O)O)C(=O)N[C@H]1CCCCn2cc(nn2)C[C@H](C(=O)N[C@@H](Cc2ccc(O)cc2)C(=O)N[C@@H](CCC(N)=O)C(N)=O)NC(=O)[C@H](CC(C)C)NC(=O)[C@H](CC(=O)O)NC(=O)[C@H](CCC(=O)O)NC1=O`, the helicity in the data set “circular dichroism” turned out to be 18.1%.

In “circular dichroism”, `CC(=O)N1CCC[C@H]1C(=O)N[C@@H](Cc1c[nH]cn1)C(=O)N[C@@H](CCC(=O)O)C(=O)N[C@H]1CCCCNC(=O)C[C@@H](C(=O)N[C@@H](Cc2ccc(O)cc2)C(=O)N[C@@H](CCC(N)=O)C(N)=O)NC(=O)[C@H](CC(C)C)NC(=O)[C@H](CC(=O)O)NC(=O)[C@H](CCC(=O)O)NC1=O` (Ac-PHEKEDLDYQ-NH2; lactam 4-8) showed a helicity of 56.7%.

`C=CCCC[C@](C)(NC(=O)[C@H](CC(C)C)NC(=O)[C@H](CC(=O)O)NC(=O)[C@H](CCC(=O)O)NC(=O)[C@](C)(CCCC=C)NC(=O)[C@H](CCC(=O)O)NC(=O)[C@H](Cc1c[nH]cn1)NC(C)=O)C(=O)N[C@@H](Cc1ccc(O)cc1)C(=O)N[C@@H](CCC(N)=O)C(N)=O` (Ac-HE[S5]EDL[S5]YQ-NH2) had a helicity in “circular dichroism” of 11%.

As for `CC(=O)N[C@@H](CC(=O)O)C(=O)N[C@@H](CCCCN)C(=O)N[C@@H]1Cc2cn(nn2)CCCC[C@@H](C(=O)N[C@@H](CCC(=O)O)C(=O)N[C@@H](CC(=O)O)C(N)=O)NC(=O)[C@H](CCC(=O)O)NC(=O)[C@H](Cc2c[nH]cn2)NC(=O)[C@H](CC(N)=O)NC1=O`, the helicity in the data set “circular dichroism” worked out at 5.2%.

On to `CC(=O)N[C@@H](Cc1c[nH]cn1)C(=O)N[C@@H](CCC(=O)O)C(=O)N[C@@]1(C)CCC/C=C/CCC[C@@](C)(C(=O)N[C@@H](Cc2ccc(O)cc2)C(=O)N[C@@H](CCC(N)=O)C(N)=O)NC(=O)[C@H](CC(C)C)NC(=O)[C@H](CC(=O)O)NC(=O)[C@H](CCC(=O)O)NC1=O` [peptide 11, Ac-NH-His-Glu-[S5-Glu-Asp-Leu-S5]-Tyr-Gln-CO-NH2] (Ac-HE[S5]EDL[S5]YQ-NH2; staple (E) 3-7), for which the helicity in “circular dichroism” stood at 53.5%. Further, in data set [1], the “Degradation / stability in rat plasma over 24 h” value was “significantly more stable”. This molecule had a half-life in “in vitro” of 6.8 h.

The molecule `CC(=O)N[C@@H](CC(=O)O)C(=O)N[C@@H](CCCCN)C(=O)N[C@@]1(C)CCC/C=C\CCC[C@@](C)(C(=O)N[C@@H](CCC(=O)O)C(=O)N[C@@H](CC(=O)O)C(N)=O)NC(=O)[C@H](CCC(=O)O)NC(=O)[C@H](Cc2c[nH]cn2)NC(=O)[C@H](CC(N)=O)NC1=O` [peptide 10] (Ac-DK[S5]NHE[S5]ED-NH2; staple (Z) 3-7) gave a helicity in “circular dichroism” of 68.9%. The molecule also showed a half-life in the data set “in vitro” of 4 h.

In the case of Ac-HEAEDLFYQ-NH2 [peptide 2], the “Degradation / stability in rat plasma over 24 h” value in data set [1] was “levels of degradation similar to those of 8-amino acid-long AngII”.

`CC(=O)N[C@@H](CC(=O)O)C(=O)N[C@@H](CCCCN)C(=O)N[C@H]1Cn2cc(nn2)CCc2cn(nn2)C[C@@H](C(=O)N[C@@H](CCC(=O)O)C(=O)N[C@@H](CC(=O)O)C(N)=O)NC(=O)[C@H](CCC(=O)O)NC(=O)[C@H](Cc2c[nH]cn2)NC(=O)[C@H](CC(N)=O)NC1=O` showed a helicity in the data set “circular dichroism” of 8.2%.

Consider `CC(=O)N[C@@H](CC(=O)O)C(=O)N[C@@H](CCCCN)C(=O)N[C@H]1CC(=O)NCCCC[C@@H](C(=O)N[C@@H](CCC(=O)O)C(=O)N[C@@H](CC(=O)O)C(N)=O)NC(=O)[C@H](CCC(=O)O)NC(=O)[C@H](Cc2c[nH]cn2)NC(=O)[C@H](CC(N)=O)NC1=O` (Ac-DKDNHEKED-NH2; lactam 3-7), for which the helicity in “circular dichroism” was 37.2%.
